{
  "source": "the nanobody polyreactivity screen of Harvey et al. (2022)",
  "data": [
    {"assay": "yeast display, Sf9 membrane polyspecificity reagent, FACS + sequencing; frameworks hold sequencing errors", "outline": "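Using colony PCR, genes from sorted yeast display clones were amplified, then sequenced on MiSeq at 2 × 250 and filtered by CDR length. The clones had been stained with 10% biotinylated, detergent-solubilized Sf9 membrane reagent for 1 hour at 4 °C and sorted by FACS into low and high (top ~1%) gates on anti-HA and streptavidin fluorescence. Polyreactivity labels come from the gate of origin.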", "values": [
      {"sequence": "QVQLEESGGGLVQAGGSLRLSCAGSGFISNGYALGWYRQAPGKEREFVASISSTGGRTYYADSVKGRFTISRDNAKNTVYLLMNSLKPEDTSVYYCAKDPQPRYWVDYWGQGTQVTVSS", "polyreactivity (PSR sort gate)": "low polyreactivity"},
      {"sequence": "QVQLEESGGGLVQAGGSLRLSCAGSGNIFPSYALGWYRQAPGKERELVAAITYSAVSTYYADSVKGRFTISRDNAKNTVYLQMNSLKPEDTAVYYCAKETTEVPGVGSQEMDFWGQGTQVTVSS", "polyreactivity (PSR sort gate)": "low polyreactivity"},
      {"sequence": "QVQLEESGGGLVQAGGSLRLSCASYGRIFPFYALGWYRQAPRKERELVARISRRGGSTYYADSVKGRFTISRDNAKNNVYLQMNSLKPEDTAVYYCASSQAVYDGWYAKFGYWGQGTQVTVSS", "polyreactivity (PSR sort gate)": "low polyreactivity"},
      {"sequence": "QVQLEESGGGLVQAGGSLRLSCASYGSTFTYNAMGLYIQAPAKERELVAVIRPGGTTNYADSVKGRFTISRDNAKNSVYLQMNSLKPVDTAVYYCAADVRRYDGYDYWGQGTQVTVSS", "polyreactivity (PSR sort gate)": "low polyreactivity"},
      {"sequence": "QVQLEESGGGLVQAGGSLRLSCPASGLTFDCYAMGWYRQAPGKERELVAAITSVGSTYYADSVKGRFTISRDNAKNTVYLQMTSLKPEDTAVYYCAVEGVIWCFWPYEYWGQGTQVTVSS", "polyreactivity (PSR sort gate)": "high polyreactivity"},
      {"sequence": "QVQLEESGGGLVQAGGSLRLSWAASGRTIAAYAMGWYRQAPGKERELVAAISIGGSTNYADSVKGRFTISRDNAKNTVYLQMNSLKPEDTAVYYCAAPRRRYLRARIRYEYWGQGTQVTVSS", "polyreactivity (PSR sort gate)": "high polyreactivity"},
      {"sequence": "QVQLEESGGGLVQAGGSLRLTCAASGIIFRFYAMRCDRQAPGKERELVAVITSRSDSTYYADSVKGRFTISRDYAKNTVYLQMNSVKPEDTAVYYCNARYPWYYRYSTYDYWGQGTQVTVSS", "polyreactivity (PSR sort gate)": "high polyreactivity"},
      {"sequence": "QVQLEESGGGLVQAGGSLRLTCAASGRTFSSYTMGWSRQAPGKERELVASITNNGGSTYYADSVKGRFTISRDNAKNTVYLQMNSLKPEDTAVYYCNKDPWYVFHPRGLFLFDYWGQGTQVTVSS", "polyreactivity (PSR sort gate)": "low polyreactivity"},
      {"sequence": "QVQLEESGGGLVQAGGSLSLSSAASGSIFRNYAKGWYRQAPGKERELVAAISVRGGSTYYADSVKGRFTISRDNAKNTVYLQMNSLKPEDTAVYYCNARTYYPVYYRDGGYWGQGTQVTVSS", "polyreactivity (PSR sort gate)": "high polyreactivity"},
      {"sequence": "QVQLEESGGGLVQAGGSRRLSCAASGITFPGYAMGWYRQAPGKERELVAGITYRGGRTYYADSVKGRFTISRDNAKTTVYLQMTSLNTEATAVYYCNADYWSTGGSYSFDYWGQGTQVTVSS", "polyreactivity (PSR sort gate)": "low polyreactivity"},
      {"sequence": "QVQLEESGGGLVQAGGTLRLSCAASGLNFSYNAMGWYRQAPGKERELVAAISYSGGSTYYPDSVKGRFTISRDNAKNTVYLQMNSLKPEDTAVYYCASDAWWLYYGYYYWGQGTQVTLSS", "polyreactivity (PSR sort gate)": "high polyreactivity"},
      {"sequence": "QVQLEESGGGLVQAGRSLRLISAASGRMFGWNAMGWYRQAPWKERELVASIRSGGRTNYADSVKGRFTISRDNAKNTVYLQMNSLKPEDTAVYYCAVGPYYQSTQIYDYWGQGTQVTVSS", "polyreactivity (PSR sort gate)": "low polyreactivity"},
      {"sequence": "QVQLEESGGGLVQAVGSLRLTCAASGLIFKSNAMGWYRQAPGKERQLVAAITRTGGSTYYADSVKGRFTISRDNAKNTVYLQMNSLKPEDTAVYYCAVLYDRYGRAYYYWGQGTQVTVSS", "polyreactivity (PSR sort gate)": "high polyreactivity"},
      {"sequence": "QVQLEESGGGLVQAVRSLRLSCAASGSTFDYYAMRWFRQAPWKEREFVAAISVSGGRTYDADSVKGRFTISRDNAKTTVYLQMNSQKPEDTAVSYCAAVQWYLPSFRYYYRGQGTQVTVSS", "polyreactivity (PSR sort gate)": "high polyreactivity"},
      {"sequence": "QVQLEESGGGLVQPGGSLRLSCAASGIIFAYNAMGWNRQAPGKERELVATITDSGGTTSYADSVKGRFTISRDNAKNTVYLQMNRLKQEDTAVYYCAVLPVYWYWRNYVYLSGYDYWGQGTQVNVSS", "polyreactivity (PSR sort gate)": "low polyreactivity"},
      {"sequence": "QVQLEESGGRLVQAGARLRLSCAASGPIFHQYAMGWYRHAPGKERELGAAISSGGGSTYYADSVKGRFTISRDNAKNTGYLQMNSLKPEDTAVYYCNVYSVRWARFDFWGQGTQVTVSS", "polyreactivity (PSR sort gate)": "high polyreactivity"},
      {"sequence": "QVQLEESGGRLVQAGASLRLSCAASGSIFEDYVMGWYRHAPGKERELVADITSGGTTYYADSVKGRFTISRDYAKNTVYLQMNRLKPEATAVYYCNAYLIVDYGDETPYASLHDYWGQGTQVTVSS", "polyreactivity (PSR sort gate)": "low polyreactivity"},
      {"sequence": "QVQLEESGGRLVQAGGSLRLSCAASGGILRGYGMGWYRQAQGKQRELVAVISRRGGSTYYADSVKGRFTISRDNAKNTVYLQMNRLKPEVTAVYYCAADLKTGFLEYDYWGQGTQVTVSS", "polyreactivity (PSR sort gate)": "high polyreactivity"},
      {"sequence": "QVQLEESGGRLVQAGGSLRLSCAASGSIIGRYTMGWYRQAPGKERELVAAISGSGGSTYYADSVKGRFTISRDNAKNSVYFQMYSLKPEDTAVYYCAAYYYGRYLMVYWGQGTQVTVAS", "polyreactivity (PSR sort gate)": "high polyreactivity"},
      {"sequence": "QVQLEESGGRLVQEGGSLRLSCAASGYIFQGNAMGWYTPAPGKERELVAAITSSGGRTYYADSVKGRFTISRDNAKNTVYLQMHSLKPEDTAVYYCAAKSVRRGGGEYWGEGTQVTVSS", "polyreactivity (PSR sort gate)": "high polyreactivity"},
      {"sequence": "QVQLEESGGRLVQPGGSLRLSCAASGFIFGIYDMGWYRQAPGKERELVAAITYSGSSTYYADSVKGRFTISRDNAKNTVYLQMNSLKPEDTAVYYCNKTAWDWDYWDPEYDYWGQGTQVTVSS", "polyreactivity (PSR sort gate)": "high polyreactivity"},
      {"sequence": "QVQLEESGGVLVQAGGSLRLSCAASGLTLYRNAMGWYRQAPGKERELVATINFSGGSTYYADSVKGRFTISRDNAKNTVYLQMNSLKPEDTAVYYCNARGYWHYSPTKFDYWGQGTQVTVSS", "polyreactivity (PSR sort gate)": "low polyreactivity"},
      {"sequence": "QVQLEESGGVLVQAGGSLRLSCAASGSIFDAYAMGWYRQAPGKDRELVADITVSAGRTYYADSVNGRFTISRDNAKNTVYLQMNSLKPEDTAVYYCAADSIVGDGYWSYYWGQGTQVTVSS", "polyreactivity (PSR sort gate)": "low polyreactivity"},
      {"sequence": "QVQLEESGRGLLQAGGSLRISCAASGFIYGTNTMGWYRQAPGIARELVAAITSVGSTNYADSVKGRFTISRDNAKNTVYLQMNSLKPEDTAVYYCPATLYYQYGGDYWGQGTQVTVSS", "polyreactivity (PSR sort gate)": "low polyreactivity"},
      {"sequence": "QVQLEESGVGLLQAGGSLRLSCAASGFIFCSNDMGWYRQAPGKERELVAAITRGGNTNYADSVKGRFTISRDNAKNTVYLQLNSLKPEDTAVYYCATEGYGAVQPSYEGGYWGQGTQVTVSS", "polyreactivity (PSR sort gate)": "low polyreactivity"},
      {"sequence": "QVQLEESRGGIVQAGGSLRLSCAASGFTFSTYAMGWYRPAPGKELELVASISRSGNTNYADSVKGRFTISRDNAKNTVYLQMKSLKPEDTAVYSSAAELVYRRVRYDYWGQGTQVTVSS", "polyreactivity (PSR sort gate)": "high polyreactivity"},
      {"sequence": "QVQLEESRGGLVQAGGSHRLSCAAYGSIFRSYAMGWYRQAPGKERDLVAAISSRSGSTYYADSVKGRFTISRDNAKNTVYLQMNSLKPEDTAVYYCAAQHRHSFGYWGQGTQVTVSS", "polyreactivity (PSR sort gate)": "high polyreactivity"},
      {"sequence": "QVQLEESRGGLVQAGGSLRLSCAASGITFYTYAMGWYRQAPGKETELVAAITSRTGSTYYADSVKGRFTISRDNAKNTVYLQMNSLKPEDTAVYDCAADRTRGRDGSDYWGQGTQVTVSS", "polyreactivity (PSR sort gate)": "low polyreactivity"},
      {"sequence": "QVQLEESRGGLVQAGGSLRLSCAASGYIFSYYDMGWYRQAPGKERELVASITSSGGSTYYADSVKGRFTISRDNGKNTVYLQMNSLKPEDTAVYYCNADVYDTYSPLGYYFWGQGTQVTVSS", "polyreactivity (PSR sort gate)": "low polyreactivity"},
      {"sequence": "QVQLEESRGGLVQAGGSLRLSYPASGRTYVTYAMGWYRQAPGKERELVAAITSGGSTNYADSVKGRFTISRDNAKNTVYLQMNSLKPEDTAVYYCAKAYLWYKGIFDYWGQGTQVTVSS", "polyreactivity (PSR sort gate)": "low polyreactivity"},
      {"sequence": "QVQLEESVGGLVQAGGSLRLSCAASGRIFAAYAMGWYRQEPGKERELVAAITGSGGRTYYADSVKGRFTISRDNAKNTVYLQMNSLKPEDTAVYYCAAESTPYSSVDRVAVYYWGQGTQVTVSS", "polyreactivity (PSR sort gate)": "high polyreactivity"},
      {"sequence": "QVQLEESWGVLVQAGCSLRISCAASGRIFAYNAMGSYRQAPGKERELVAAISWRVGSTYYADSVKGRFSISRDNAKNTVYLQMNILKPEDTAVYYCAVGYYRFGRVLGYYWGQGTQVSVSS", "polyreactivity (PSR sort gate)": "high polyreactivity"},
      {"sequence": "QVQLEETGGGLVQAGGSLRLSCAASGSIFHYNAMGWYRQAPGKEREFVAAITGGGGTYYADSVKGRCTISRDNAKNTVYFQMNSLKPEDTGVYYCAAQSRTSFRFNYWGQVTQVTVSS", "polyreactivity (PSR sort gate)": "high polyreactivity"},
      {"sequence": "QVQLEETGGGLVQAGGSLRLTCAASVRTFRGNVMGWYREAPGKERELVAAINWTGSSTYYADSVKGRFTISRDNAKNSVYLQMNSLKPEDTAVYYCATRSGPHGGGLPRDYWGQGTQVTVSS", "polyreactivity (PSR sort gate)": "low polyreactivity"},
      {"sequence": "QVQLEETGGRLVQAGARLRLSCDASGYIFFFYAMGWYRHAPGKERELDASITYRGGSTYYADSVKGRFTLSRDYAKNTVYLQINSLKPEDTAVYYCIVDGGGPLGPHGFPFDYWGQGTQVTVSS", "polyreactivity (PSR sort gate)": "low polyreactivity"},
      {"sequence": "QVQLEVSGGGLVQAGRSLRLSCAASGSTFYGYAMGWYRQAPGKERELVAAITSSGGSTYYADSVKGRFTISRDNAKNTVYLQMNSLKPEDTAVYYCNAKRAPWGTLYNYWGQGTQVTVSS", "polyreactivity (PSR sort gate)": "high polyreactivity"},
      {"sequence": "QVQLGDSGGGLVQAGGRLGLSCAASGSTFGRYAMGWYRPAPGKERELVAAISSSGGRTYYADSVKGRFTISRDNAKNTVYLQMNSLKPEDTAVYYCASDARFRQKYEYWGQGTQVTVSS", "polyreactivity (PSR sort gate)": "high polyreactivity"},
      {"sequence": "QVQLGDSGGGLVQAGGRLRLSCAASGRTIRPYTMGWYRQAPGNERALVAAITSGGGSTYYADSVKGRFTISRDNAKNTVTLQMHSLKPDDTAVYYCAAPRRERWIDVNQHYSWGQGTQVTVSS", "polyreactivity (PSR sort gate)": "low polyreactivity"},
      {"sequence": "QVQLGDSGGGLVQAGGSLRLSCAASGFNFRTNTMGWYRQEPGKERELVAAITRSGGSTYYADSVKGRFTISSDNAKYTVYLQMNSLKPEDSAVYYCAKEYRRVVADFGYWGQGTQVTVSS", "polyreactivity (PSR sort gate)": "high polyreactivity"},
      {"sequence": "QVQLGDSGGGLVQAGGSLRLSCAASGRIFYGNAMGWYRQAPWKERELVAAISSGGGSTYYADSVKGRFTISRDNAKNTVYLQMNSLKPEDNAVYYCAADPVPRFPGTGGYWGQGTQVTVSS", "polyreactivity (PSR sort gate)": "low polyreactivity"}
    ]}
  ]
}
